# B1: NEO-101: Chimeric NEO-101 antibody, engineered in CHO-DG44 production cell clone 4B7; targets a variant of MUC5AC (protein)
# light: QVVLTQSPVIMSASPGEKVTMTCSASSSISYMYWYQQKPGTSPKRWIYDTSKLASGVPARFSGSGSGTSYSLTISNMEAGDAATYYCHQRDSYPWTFGGGTNLEIK
# heavy: QVQLKESGPDLVAPSQSLSITCTVSGFSLSKFGVNWVRQPPGKGLEWLGVIWGDGSTSYNSGLISRLSISKENSKSQVFLKLNSLQADDTATYYCVKPGGDYWGHGTSVTVSS
# Tests used:
# DU145 (Prostate) = experiment: ADCC 4-hour 111-Indium release assay; format: cell-based, human
# [1] = tested on: human AsPC-1 pancreas tumor; experiment: AsPC-1 pancreas tumor xenograft model; format: in vivo, nude mice; conditions: 200 μg ip
# Method: The NEO-101 antibody was tested for anti-tumor activity using the human AsPC-1 pancreas tumor xenograft model in nude mice. In this activity model, mice were implanted with human AsPC-1 tumor cells and allowed to establish to approximately 20-50 mm^3, measurable with a caliper in approximately 4-6 days. The treatment regimen included intraperitoneal injection of 200 μg of research-grade NEO-101 or a negative control human IgG (Pierce), followed on the next day with an intraperitoneal injection of IL-2-activated normal human PBMCs (approximately 2×10^7 per mouse per injection). Two cycles of treatment were administered such that antibody injections occurred on days 5 and 8, and PBMC injections occurred on days 6 and 9 in this study. Throughout the study, the tumor growth was monitored twice weekly by measurement with a caliper. Tumor volume was calculated using the equation: […], in units of cubic millimeters. If a tumor reached approximately 800 mm^3, or became ulcerated or necrotic, the mouse was humanely sacrificed. The study was terminated on study day 35.
# This anti-tumor activity study was repeated in a separate study using the same AsPC-1 pancreas tumor model and the 200 μg dose of NEO-101 antibody. However, in the second study, four cycles of treatment were administered instead of two cycles. […]
# [2] = Cytokine response in vivo, multiplex bead assay; parameters: species or system BALB/c mice; conditions: 3.5 or 14 mg/kg iv; day 3
# Method: In a preliminary study designed to evaluate potential cytokine responses in vivo, normal BALB/c mice were injected intravenously with either 3.5 mg/kg or 14 mg/kg (5 mice per group) of research-grade NEO-101. Blood was collected on Study Day 3 (^72 hours post-injection) and Study Day 10. Serum was prepared (including from the pre-bleed of each mouse) and tested for the presence of mouse IL-2, IFN-γ, IL-4, and IL-5 in a multiplex bead assay using the SearchLight Array service offered by Aushon BioSystems, Inc.
# [3] = Preliminary non-GLP toxicity study; format: in vivo, BALB/c mice
# Method: A preliminary non-GLP toxicity study using a research-grade preparation of NEO-101 was also conducted. Normal BALB/c mice were Injected with a single IV dose of saline, or 3, 10, 30, or 100 mg/kg of NEO-101 (n=3 female mice per group). In-life parameters measured included body weights and clinical observations. Mice were humanely sacrificed 72 hours following the injection and specimens were collected for analysis. Post-mortem parameters included macroscopic examination, blood cell counts, serum chemistries, and histopathological evaluation of selected major organs and tissues. […] No other toxicities were detected in these studies potentially associated with NEO-101, including during histopathological examination of the major organ systems in these mice.
# Pharmacokinetics = format: in vivo, mice; conditions: for serum half-life (t½): single dose 100 mg/kg
# Method: To determine whether gender impacted the disposition of NEO-101 in vivo, each treatment group contained four males and four females. Clearance, Cmax and half-life following a single dose of 10 or 100 mg/kg were compared by non-parametric Mann-Whitney test. […] However, the serum half-life of NEO-101 was shorter in females than in males. […] However, it is likely that this is a spurious observation, arising from high inter-animal variability, as this difference in half-life was not replicated following multiple doses, regardless of dose level.
# The data provides useful guidance for the dosing schedule of possible therapeutic regimes. Mice injected intravenously with 10 mg/kg of NEO-101 may be used for comparison to the doses used in therapy regiments for humans, for instance.
# lung tumor tissue = experiment: Immunohistochemistry of lung tumor tissue; format: binding; conditions: 10 μg/ml biotinylated antibody
# Method: Slides were deparaffinized, rehydrated and antigen retrieval was performed. Slides were then stained with 10 μg/ml biotinylated NEO-101 antibody and then streptavidin-HRP was applied for color development. Slides were counter stained with H.E., hydrated and fixed. The results
# The specificity of NEO-101 for pancreatic and colorectal tumor tissue was further shown by staining lung tumor tissue. While there was significant binding to these tissues with a commercial antibody that recognizes normal MUC5AC, there was no reactivity of NEO-101 with these lung tumor tissues.
# [4] = tested on: colorectal cancer cell line LS174T; experiment: Immunofluorescence with FITC labeled NEO-101; format: cell-based; conditions: 2 μg/ml FITC labeled antibody
# Method: (§1) FACs data showing NEO-101 antibody binding to colon cancer and pancreatic cancer cell lines. Cells were washed and suspended in either 2 μg/ml NEO-101-FITC or isotype control antibody-FITC for 1 hour, washed and then subjected to FACS analysis. Experiments with all cell lines were repeated at least three times. […] DAPI was used to stain the nucleus. […] The staining pattern of these pancreatic and colorectal tumor cells was predominantly membrane-associated, consistent with the expression profile of MUC5AC.
# [5] = tested on: pancreatic cancer cell line AsPC-1; experiment: Immunofluorescence with FITC labeled NEO-101; format: cell-based; conditions: 2 μg/ml FITC labeled antibody
# Method: as §1
# [6] = tested on: lung cancer cell line A549; experiment: Immunofluorescence with FITC labeled NEO-101; format: cell-based, human; conditions: 2 μg/ml FITC labeled antibody
# CFPAC1 cells = experiment: NEO-101-coupled Dynal beads rosette assay; format: cell-based, human; conditions: antibody-coupled Dynal beads with TBS, no M13 clone
# Method: The M13 clones identified by the biopanning were also immunoassayed using magnetic beads. Aliquots of 5 μl M13 phage (10^11/10 μl) were mixed with 10 μl NEO-101-coupled Dynal® beads at RT for 20 min on a rotator. CFPAC1 cells (30 μl of 10^6 cells/ml) were added and incubated at 4° C. for 30 min. Rosetted cells were counted (>8 beads/cell).
# [7] = normal BALB/c mice
# Method: Mouse anti-NEO-101 antibody (MAHA) responses were also measured in this study (CB08-5110). The analysis employed an ELISA based assay to detect NEO-101-specific antibodies in mouse serum.
molecule,measurement,setting,value
B1,% Specific Killing (±SEM),DU145 (Prostate); Effector:Target 12.5:1,−0.3 ± 0.1%
same,% Specific Killing (±SEM),DU145 (Prostate); Effector:Target 25:1,0.3 ± 0.8%
same,% Specific Killing (±SEM),DU145 (Prostate); Effector:Target 50:1,−0.5 ± 0.3%
same,tumor growth versus human IgG control,"[1]; four cycles, with PBMCs, significant from Day 18 (P=0.0044)",very similar growth inhibition
same,tumor growth versus control groups,"[1]; two cycles, with IL-2-activated human PBMCs, significant from day 13 (P=0.0072)",Tumor growth inhibition was observed
same,serum level of IFN-γ,[2],no appreciable change
same,serum level of IL-2,[2],small increase
same,serum level of IL-4,[2],no appreciable change
same,serum level of IL-5,[2],small increase
same,serum aspartate transaminase (AST),[3]; 2 out of 3 mice that received 100 mg/kg,"mild, but statistically insignificant elevation"
same,"body weight, blood cell counts, and histopathology of 7 major organs and tissues","[3]; single IV dose 3, 10, 30 or 100 mg/kg, 72 hours",no significant changes
same,serum half-life (t½),Pharmacokinetics; females,109.5 ± 14.72 h
same,serum half-life (t½),Pharmacokinetics; males,285.4 ± 139.5 h
same,clearance,Pharmacokinetics; mice,low clearance
same,volume of distribution,Pharmacokinetics; mice,limited volume of distribution
same,gender-specific differences in clearance or Cmax,Pharmacokinetics; single dose of 10 or 100 mg/kg,No significant gender-specific differences were observed
same,reactivity with lung tumor tissues,lung tumor tissue,no reactivity
same,binding by immunofluorescence,[4],binds
same,binding by immunofluorescence,[5],binds
same,binding by immunofluorescence,[6],does not bind
same,Positive rosette cells (%),CFPAC1 cells,41%
same,immunogenicity (MAHA response),[7],only mildly immunogenic

# Reference: patent US11078245B2, “Colon and pancreas cancer peptidomimetics” (PRECISION BIOLOGICS, INC., priority 2010, dated 2021)
